# In US20080131465A1, “Group a Streptococcus Crge Protein” (priority 2004, published 2008):
# T1: LL-37 (Homo sapiens, UniProt P49913)
# T1 construct: release the mature C-terminal antimicrobial peptide
# T1 sequence (P49913 134-170 limits assumed): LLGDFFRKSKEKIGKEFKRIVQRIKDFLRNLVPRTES
# B1: Spy1542: Streptococcus pyogenes protein encoded by crgE (spy1542), cloned, expressed as native protein and purified; confers resistance to cathelicidins (protein)
# chain: MESYITPKHQEACVAAIKQIVSYPSVCHEGENGTPFGQAIQDILEATLDLCQGLGFHTYIDPEGYYGYAELGDQKEVLAILCHLDVVPEGDRQLWKTDPFDCVEADGCLFGRGTQDDKGPTMMALFATKALIDAGVTFNKRIRFIFGTDEETLWRCMNRYNDVEEQATFGFAPDSSFPLTYAEKGLLQAKLVGKGSDKLSLEIGQAYNVVPARASYQGDKLEALQKELDKLGFEYVVKEGELTVYGLAQHAKDAPDGINAMIRLAKALVVLEPNKTLDFLANVIDEDGRALNIFGRIEDEPSGKLSFNAAGLTLTKDKAEIRLDIRIPVLADKEKLVQQLSQKAQEYGLTYEEFDYLAPLYVPLDSELVTTLLSVYRKKTGDQSPAQSSGGATFARTMKNCVAFGALFPDAVQTEHQENEHIVLADAYRAMDIYAEAIYRLTR
# modifications: Streptococcus pyogenes
# notes: Streptococcus pyogenes protein encoded by crgE (spy1542), cloned, expressed as native protein and purified; confers resistance to cathelicidins
# What was measured:
# [1] = system: GAS strain SF370 WT; assay type: cell-based, Streptococcus pyogenes; conditions: 1 hour at 37° C., ~10^6 cfu
# Protocol: (§1) The mutant was obtained using allelic exchange gene replacement mutagenesis. Positive clones were confirmed by PCR and used for further experiments. Quantitative real time PCR confirmed the absence of crgR mRNA in the mutant. ΔcrgR mutant cathelicidin resistance was tested in a bacterial killing assay. Bacteria were grown in THB to OD600 0.2 and diluted in […] Tris-HCl, pH7.5, containing 5 mM glucose. 1 ml of bacteria (˜10^6 cfu) were incubated together with different concentrations of cathelicidins for 1 hour at 37° C. with no agitation. The bactericidal activity was assessed by plating serial dilutions of the incubation mixtures on THY-blood agar.
# [2] = system: ΔcrgR mutant of GAS strain SF370; assay type: cell-based, Streptococcus pyogenes; conditions: 1 hour at 37° C., ~10^6 cfu
# Protocol: as §1
# [3] = system: WT and Δspy1542 mutant strains; assay: FACS analysis of LL-37 localised on the bacterial surface; assay type: cell-based, Streptococcus pyogenes; conditions: 0.8 μM LL-37; WT versus Δspy1542 mutant; 5 or 10 min at 37° C.
# Protocol: An experiment was carried out to see if LL-37 bound to the surface of the bacteria. 0.8 μM LL-37 was added to the bacteria in a method similar to that for the bacterial killing assay. The amount of LL-37 localised on the bacterial surface was then compared for WT and Δspy1542 mutant strains by FACS analysis. […] This “protective” effect also increases with time. The WT strains therefore appear to be shielded against LL-37.
# [4] = system: Streptococcus pneumoniae; assay: antimicrobial assay on Streptococcus pneumoniae; assay type: cell-based
# Protocol: as §1
# In order to see if a similar mechanism of action was found in other bacteria encoding heterologous proteins, the antimicrobial assay was carried out as described above, except using Streptococcus pneumoniae. […] The experiment was repeated by adding 70 μg of native Spy1542 in addition to 0.4 μM, 0.8 μM or 1.6 μM of LL-37. In this second experiment, 100% survival at 0.4 μM was noted. Therefore Spy1542 appears to be able to inhibit cathelicidin action also in heterologous systems
# [5] = system: Wild-type, ΔcrgR and ΔcrgR/Δspy1542-43 strains challenged with cathelicidin; assay: bacterial killing assay with purified Spy1542 added to the medium; assay type: cell-based, Streptococcus pyogenes; conditions: different concentrations of purified Spy1542
# Protocol: The involvement of Spy1542 in the resistance mechanism to antimicrobial peptides was investigated further by cloning and expressing Spy1542 as a native protein. The expressed protein was purified by using a Q sepharose column followed by Cu chelating and finally, gel filtration (FIG. 7). The purified protein was successively used to study its effect when added to the medium in bacterial-killing assays.
# Wild-type; ΔcrgR and ΔcrgR/Δspy1542-43 strains were challenged with 0.4 μM LL-37 or CRAMP, and added with different concentrations of the purified protein.
# In addition, Spy1542 protein was also able to enhance in a dose dependent manner the survival rate of the ΔcrgR mutant (FIG. 8a).
# [6] = target: T1, LL-37; assay: mass spectrometry of LL-37 in supernatant after Spy1542 treatment; conditions: WT strain, 0.4 μM LL-37, after 30 minutes
# Protocol: Spy1542 was therefore used to treat the WT strain challenged with 0.4 μM LL-37 in a process similar to the bacterial killing assay described above. After 30 minutes, the bacteria were pelleted and the supernatant was analysed. It was discovered by mass spectrometry that the LL-37 in the supernatant was unmodified by the action of Spy1542 (FIG. 13).
# [7] = system: bacteria challenged with LL-37; assay: pre-treatment of bacteria with Spy1542, washing, then LL-37 challenge; assay type: cell-based, Streptococcus pyogenes; conditions: Spy1542 added, bacteria pelleted, washed, resuspended; then 0.4 μM LL-37
# Protocol: A further experiment was therefore carried out to confirm that the effect of Spy1542 was indirect. Spy1542 was added to the bacteria. The bacteria were then pelleted, washed and resuspended. 0.4 μM LL-37 was then added to the suspension.
Molecule,concentration necessary to kill 50% of bacterial cells (LD50) [1] [µM],concentration necessary to kill 50% of bacterial cells (LD50) [2] [µM],amount of LL-37 localised on the bacterial surface [3],killing of bacteria ([4]; increasing concentrations of LL-37),inhibition of CRAMP bactericidal activity ([5]; 0.4 μM CRAMP),"inhibition of LL-37 action (number of colonies, survival rate) ([5]; 0.4 μM LL-37)",survival ([4]; 70 μg native Spy1542 added with 0.4 μM LL-37) [%],modification of LL-37 in the supernatant by Spy1542 [6],protective effect against LL-37 after pre-treatment and washing [7]
CC[C@H](C)[C@H](NC(=O)[C@H](CCCCN)NC(=O)[C@H](CCC(=O)O)NC(=O)[C@H](CCCCN)NC(=O)[C@H](CO)NC(=O)[C@H](CCCCN)NC(=O)[C@H](CCCNC(=N)N)NC(=O)[C@H](Cc1ccccc1)NC(=O)[C@H](Cc1ccccc1)NC(=O)[C@H](CC(=O)O)NC(=O)CNC(=O)[C@H](CC(C)C)NC(=O)[C@@H](N)CC(C)C)C(=O)NCC(=O)N[C@@H](CCCCN)C(=O)N[C@@H](CCC(=O)O)C(=O)N[C@@H](Cc1ccccc1)C(=O)N[C@@H](CCCCN)C(=O)N[C@@H](CCCNC(=N)N)C(=O)N[C@H](C(=O)N[C@H](C(=O)N[C@@H](CCC(N)=O)C(=O)N[C@@H](CCCNC(=N)N)C(=O)N[C@H](C(=O)N[C@@H](CCCCN)C(=O)N[C@@H](CC(=O)O)C(=O)N[C@@H](Cc1ccccc1)C(=O)N[C@@H](CC(C)C)C(=O)N[C@@H](CCCNC(=N)N)C(=O)N[C@@H](CC(N)=O)C(=O)N[C@@H](CC(C)C)C(=O)N[C@H](C(=O)N1CCC[C@H]1C(=O)N[C@@H](CCCNC(=N)N)C(=O)N[C@H](C(=O)N[C@@H](CCC(=O)O)C(=O)N[C@@H](CO)C(=O)O)[C@@H](C)O)C(C)C)[C@@H](C)CC)C(C)C)[C@@H](C)CC [LL-37],0.103,0.28,WT strain had less LL-31 on the bacterial surface,shown to kill the bacteria,–,–,–,–,–
B1,–,–,–,–,inhibited cathelicidin bactericidal activity in a dose-dependent fashion,inhibits LL-37 action in a dose dependent manner,100,unmodified,protective effect of Spy1542 was maintained and that it was dose dependent
